# T1: Bmi1 (mouse (endogenous in Ba/F3 cells and …, UniProt P25916 1-324))
# T1 construct: Bmi1, mouse, endogenous protein of Ba/F3 cells and of primary murine B-cell progenitors; also called PCGF4; source: endogenous, Ba/F3 cells (cytoplasmic and nuclear fractions; fixed cells) and murine B-cell progenitors (fixed cells)
# T1 sequence (looked up): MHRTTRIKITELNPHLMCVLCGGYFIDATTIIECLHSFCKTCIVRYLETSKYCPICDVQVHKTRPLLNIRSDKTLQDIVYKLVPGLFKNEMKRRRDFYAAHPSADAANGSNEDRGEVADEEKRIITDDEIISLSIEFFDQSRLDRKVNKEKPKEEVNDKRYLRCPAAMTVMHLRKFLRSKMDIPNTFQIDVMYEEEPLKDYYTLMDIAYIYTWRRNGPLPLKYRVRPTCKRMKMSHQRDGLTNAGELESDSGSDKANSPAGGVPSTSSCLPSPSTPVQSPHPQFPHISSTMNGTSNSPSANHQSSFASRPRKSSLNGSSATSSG
# B1: Vav3 NA (N369A mutant which loses the GEF activity) (natural protein, UniProt Q9R0C8 1-847, looked up)
# chain: MEPWKQCAQWLIHSKVLPPNHRVTWDSAQVFDLAQTLRDGVLLCQLLNNLRPHSINLKEINLRPQMSQFLCLKNIRTFLAACCDTFGMRKSELFEAFDLFDVRDFGKVIETLSRLSRTPIALATGIRPFPTEESINDEDIYKGLPDLIDETRVEDEEDLYDCVYGEDEGGEVYEDLMKAEEAQQPKSQENDIRSCCLAEIRQTEEKYTETLESIEKYFMAPLKRFLTAAEFDSVFINIPDLVKVHRSLMQEIHDSIVNKDDQNLYQVFINYKERLVIYGQYCSGVESAISNLDYISKTKEDVKLKLEECSKRANNGKFTLRDLLVVPMQRVLKYHLLLQELVKHTHDPMEKANLKLALDAMKDLAQYVAEVKRDNETLREIKQFQLSIENLNQPVLLFGRPQGDGEIRITTLDKHTKQERHIFLFDLAVIVCKRKGDNYEMKEIIDLQQYKIANNPTTDKENKKWSYGFYLIHTQGQNGLEFYCKTKDLKKKWLEQFEMALSNIRPDYADSNFHDFKMHTFTRVTSCRVCQMLLRGTFYQGYLCFKCGAKAHKECLGRVDNCGRVNSVEQGPFKPPEKRTNGLRRASRQVDPGLPKMQVIRNYTGTPAPGLHEGPPLHIQAGDTVELLRGDAHSVFWQGRNLASGEVGFFPSDAVKPSPCVPKPVDYSCQPWYAGPMERLQAETELINRVNSTYLVRHRTKESGEYAISIKYNNEAKHIKILTRDGFFHIAENRKFKSLMELVEYYKHHSLKEGFRTLDTTLQFPYKEPEQPAGQRGNRTGNSLLSPKVLGIAIARYDFCARDMRELSLLKGDMVKIYTKMSANGWWRGEVNGRVGWFPSTYVEEDE
# notes: Vav3 with N369A; also called Vav3(N369A); Vav3N369A; source: lentiviral vector pCDH-EF1-MCS-IRES-GFP, transduced Vav3-/- leukemic murine B-cell progenitors (fixed cells)
# Target: T1, Bmi1
# Experiment: proximity ligation; Duolink PLA in fixed, permeabilised primary murine B-cell progenitors on fibronectin-coated slides (empty vector or p190-BCR-ABL transduced; WT, Rac2-/-, or Vav3-/- transduced with empty vector, Vav3 FL or Vav3 N369A); confocal microscopy
# Settings: partners not purified
binder,measurement,value
B1,fold reduction of the PLA signal against full-length Vav3,~2 fold

# Source: article PMC9160250, “Nuclear Vav3 is required for polycomb repression complex-1 activity in B-cell lymphoblastic leukemogenesis” (Nature Communications, 2022)
